According to the DeepSol protein solubility set:

Assay: soluble on expression in E. coli; label from the status in PepcDB or PDB records

Sequence | soluble on expression in E. coli
MKFLNQHELTKLLALLDLDHGLDWDYFLLLIAKTGLRFGEALGVTPMDFDMAKLTLTINKTWDYKSATGSFAETKNTASVRKVPLDWQVAMQFAAQIKSLPQDKPIFVTDGQRVYNETANDILERKCKRASIPVISIHGLRHTHASLLLYAGVSVGSVARRLGHANMSTTQKTYLHILEHHHHHH | soluble
MKFVAVIRQVPDGESKLRIQGDRVDLSGATMILDQMDEYAVEEAIRLKERHGGEAVVVGFGPERTEEAIRTALAMGMDRGVHVVYEGFADPVAVAEALVEVLKEEAPTLVLTGGQQADWDSQALGGALTEALGVPVVAWTTALELEGDTAKAKHDLDEGAEWVRVRLPAVFTTQQGLNEPRYPTLPGIMKAKKKEIRKVQASLTPKVTLISEEIQEKSRLGKILDGKDPVAAAEELVRLLHEEAKVI | soluble
MKFYTILSILFISFMLSACAVLQKSSPLQENKDFYILDTHTQKKISFEDMILELLKADVILLGEKHDEVKHKISQVMIFNALEGNLSSQNINFDVALEMLASTEQNHLDKAFKNKKTIKANELTNALNWDKVWKWKDYEQFVNVVFYSKSKILGANLSRSEITSIYNGAQPLKGYVSTTNEVKKQLFDIISLSHKLNPEENKELLDKLVEIQQFKDRRMADVLVHHVNKVLLLAGSYHTSKKIGIPLHIQDFKSSKKIVVVNLSYGEIDLKDSDYVLIYKGEE | not soluble
MKGFYHHPSRTISLRNNLSERQLRSTLAHELGHAMRGDVPTSGVFAEHIERRADEFAARLLISPIEYRLAESLHDGHIGAIAYELGVTVRLVEVWRDMHDRITA | not soluble
MKGILGFEYGIVQAPLGPDISGPELVAAVANAGGIGLLRCPDWECPDYLRELIRKTKTLTEKPFGIGVVLAFPHDLNIKTILEEKVAVLQLYWGDCSQELVDDAHFAGVKVIPQVGNVEEARKAVAVGVDAIIVQGREAGGHVIGKDGLFSLLPRVVDLVGERDIPVIAAGGIVDGRGYVAALSLGAQGVCLGTRFVATHESYAHPIYKRKLIEYEKTEYTDVFGRARWPGAPQRVLETPFFDDWRSLPAHENEVNQPIIGRSTIHGVEKEIRRFSGTVPNMTTTGDLESMAMYAGQSVGLIKEILPAGEVVKSLVEEAQALILQKFNNATTT | not soluble
MKGKITLFFTALCFGLTGCIAPPKGLEKERFSINSYREISPQDLTCHCKTVRLGGKIVNTTVLANQTKIEVLSLPVSSISAKPFVELQSDGRFIVYFNGFVEPENLKERYITVGGQLAGTEKGKIEQADYTYPVVQADKYRIWTLSTTYDYPTDDWDEDDDWGFFRWRHRLWYVQPEIHYYLN | not soluble
MKGLCSSDTRQYLPGHQLWEAPVQIRRYSAVIHHATKCQWGVIPSRTINVSLHQTRRMRVAAVGIGGAGGRIVERLWQDNERRETTYLGAACAVDTDTEALDELDALPADRRYAFGLSETNGTGTNGDRTSGTAAIEDERLEVRRAIDELVTSDIDAVVLVAGLAGGTGSGATAHIADALREVYSIPVYCLSVLPAGRDDDAAANTMQALRALESTVDGQILFDNEAWLGSGQTVESASETLNETIVARLGALFAAGEATAPDAVGQSVVDASEIINTLSDAGFTTLGYASQDLQTGAGSGDGTVIDQLKNRFLGDNADDVDEIEAYNAVETTLRRAVRGKLTAQCELDSADRALAVFAGPPAWLIRDAVTDGRRWLTEELQSPEVRSGLEHHHHHH | not soluble
MKGQVVSLHLGLGSGLPKPRVEALELVAGFGAKGDRHAGKDPDRAVLVAGLSAYEKAQGAGIPLPYGALGENLLLDLDPHALPPGARLRVGEALLELSQVCPVCKSLSQFDLRLPKLLYGGRGVYARVLEGGVVRVGDPVLVLAPAR | soluble
MKGRRPPASPTAAASAQLELPLLAPPAAPDAAPPSADPAQPDPAAPLGPDQRRLALGERTLVYHLKRSSRRTIGFVVDDRGLSITAPRWVTLAEIEHAIAEKQKWIFAKLAEWHTSAARRVLPPMRWEDGATLPFLGKPVMLKLESPIGALVFDADMRTLHLGLPPTATGQQIKDRVQGWLQTQARRLFGERLDVYAERLGVRHSAYALSSAATRWGSCTADGKIRLNWRLVHFPLSLIDYVVAHELAHLKEMNHSPRFWDTVESIFPEFREAREQLRSHPPEYLPVFLEHHHHHH | not soluble
